Test results from US20260116991A1 (HAINAN SIMCERE ZAIMING PHARMACEUTICAL, published 2026).

Key:
[1] = molecular target: T1, murine GPC3-his protein (Sino Biological, Cat. No. 50989-M08B) (murine, UniProt Q8CFZ4 25-558); assay: ELISA, coated murine GPC3-His;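 also: antigen coated on plates at 1 µg/mL, test antibody bound for 2 h at 37 °C, detected with HRP-conjugated secondary antibody and TMB substrate after acid stop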
T1 construct: Bought protein; also called murine GPC3 protein

[2] = molecular target: biotinylated labeled human GPC3 protein (produced in-house) (human, UniProt P51654 25-559, limits assumed, biotinylated (Dojindo, Cat. No. LK03); sites not stated); assay: ELISA, biotinylated human GPC3 protein
[3] = molecular target: T2, human GPC3 on CHO-K1-human GPC3 cells (CHOK1-hGPC3.2B5) (human, UniProt P51654 25-554); assay: FACS, CHOK1-hGPC3.2B5 cells;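 also: flow cytometry of humanized antibodies binding to the cells over one hour in the cold, read as cell mean fluorescence intensity, with EC50 obtained by curve fitting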
T2 construct: whole, on cells

T1 sequence (Q8CFZ4 25-558 limits assumed): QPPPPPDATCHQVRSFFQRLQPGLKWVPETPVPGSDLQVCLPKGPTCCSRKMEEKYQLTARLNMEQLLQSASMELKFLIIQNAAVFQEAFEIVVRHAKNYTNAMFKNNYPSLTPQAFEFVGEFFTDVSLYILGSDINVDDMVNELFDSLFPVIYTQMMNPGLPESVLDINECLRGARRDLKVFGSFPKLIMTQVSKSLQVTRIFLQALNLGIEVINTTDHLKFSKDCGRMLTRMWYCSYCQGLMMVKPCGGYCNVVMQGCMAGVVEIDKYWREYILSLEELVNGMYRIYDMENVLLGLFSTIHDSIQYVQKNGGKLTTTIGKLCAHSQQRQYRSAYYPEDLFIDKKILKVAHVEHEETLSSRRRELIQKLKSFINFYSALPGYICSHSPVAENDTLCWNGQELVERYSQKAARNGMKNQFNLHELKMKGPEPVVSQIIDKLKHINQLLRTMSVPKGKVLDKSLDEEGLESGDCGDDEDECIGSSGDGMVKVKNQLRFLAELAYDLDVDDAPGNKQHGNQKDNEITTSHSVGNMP

B1: F4.18.4 human-murine chimeric antibody (antibody, human IgG1, kappa, V domains shown)
VH: QVQLHQSGAEMAKPGASVNLSCKTSGFTFTDYGISWVKQRTRQGLEWIGDIYPRHINIYYNEKFKDKATLTADRSSSTAYMELRSMTSEDSAVYFCARRGTTGRGALDYWGQGTSLTVSS
VL: DILLTQSPAILSVSPGERVSFSCRASQSIGTSIHWYQQRTNGSPRLLIKYAFESISGIPSRFGGSGSRTDFTLTINSVESEDIADYYCQQTYNWPYTFGGGTKLEIKR
OD450 at 0.0001 nM antibody [1]: 0.18 OD450 nm
OD450 at 0.001 nM antibody [1]: 0.15 OD450 nm
OD450 at 0.01 nM antibody [1]: 0.1 OD450 nm
OD450 at 0.1 nM antibody [1]: 0.1 OD450 nm
OD450 at 1 nM antibody [1]: 0.14 OD450 nm
OD450 at 10 nM antibody [1]: 0.16 OD450 nm
OD450 at 100 nM antibody [1]: 0.13 OD450 nm

B2: F4.21.16 human-murine chimeric antibody (antibody, human IgG1, kappa, V domains shown)
VH: DVQLQESGPGLVKPSQSLSLTCSVTGYSITSGYYWNWIRQFPGNKLEWMGYISYDVTVNYNPSLKNRISITRDTSKNQFFLKLNSVTTEDTATYYCATITSVASMDHWGQGTSVTVSS
VL: DILMTQTPLSLPVSLGDQASISCRSSQNIVHRNGNTYLEWYLQKPGQSPKLLLYKVSNRFSGVPDRFSGSGSGTDFTLKISRVEAEDLGIYYCFQGSHFPFTFGSGTKLEIKR
OD450 at 0.0001 nM antibody [1]: 0.05 OD450 nm
OD450 at 0.001 nM antibody [1]: 0.05 OD450 nm
OD450 at 0.01 nM antibody [1]: 0.04 OD450 nm
OD450 at 0.1 nM antibody [1]: 0.09 OD450 nm
OD450 at 1 nM antibody [1]: 0.05 OD450 nm
OD450 at 10 nM antibody [1]: 0.05 OD450 nm
OD450 at 100 nM antibody [1]: 0.08 OD450 nm

B3: F4.26.1 human-murine chimeric antibody (antibody, human IgG1, kappa, V domains shown)
VH: QVQLKQSGPGLVQPSQSLSITCTVSGFSLTSYGVHWVRQSPGKGLEWLGVIWSSGNTDYNAVLISRLSIKKDDSKSQVFFKMNSPQVDDSAIYYCGRNGGWLLRGFMDFWGQGTSVTVSS
VL: DVVMTQTPLSLPVSLGDQASISCRSSQSLLHSNGNTYLHWYLQRSGQSPNLLIYKVSNRFSGVPDRFSGGGSGTDFTLKISRVEAEDLGIYFCSQSTHVPWTFGGGTKLEIKR
OD450 at 0.0001 nM antibody [1]: 0.06 OD450 nm
OD450 at 0.001 nM antibody [1]: 0.07 OD450 nm
OD450 at 0.01 nM antibody [1]: 0.11 OD450 nm
OD450 at 0.1 nM antibody [1]: 0.57 OD450 nm
OD450 at 1 nM antibody [1]: 0.98 OD450 nm
OD450 at 10 nM antibody [1]: 1.29 OD450 nm
OD450 at 100 nM antibody [1]: 0.68 OD450 nm

B4: hAb001H1L1 (antibody, human IgG1, V domains shown)
VH: EVQLVESGGGLVQPGGSLRLSCAASGFSFNTNAMNWVRQAPGKGLEWVGRIRSKSNNYATYYADSVKDRFTISRDDSKNSLYLQMNSLKTEDTAVYYCVRDGYYVLFAYWGQGTLVTVSS
VL: DIVMTQTPLSLPVTPGEPASISCRFSQSIVNSNGNTYLEWFLQKPGQSPQLLIYKVSNRFSGVPDRFSGSGSGTDFTLKISRVEAEDVGVYYCFQGSHVPFTFGQGTKLEIK
notes: Humanized F2.169.2; VH H1 + VL L1; expressed as human IgG1
OD450 at 0.0008 nM [2]: 0.162 OD450
OD450 at 0.004 nM [2]: 0.341 OD450
OD450 at 0.02 nM [2]: 0.926 OD450
OD450 at 0.11 nM [2]: 2 OD450
OD450 at 0.53 nM [2]: 2.64 OD450
OD450 at 2.67 nM [2]: 2.67 OD450
OD450 at 13.33 nM [2]: 2.72 OD450
OD450 at 66.66 nM [2]: 2.74 OD450
EC50 [3]: 0.313 nM
Max MFI [3]: 3400 MFI

B5: hAb001H1L1a (antibody, human IgG1, V domains shown)
VH: EVQLVESGGGLVQPGGSLRLSCAASGFSFNTNAMNWVRQAPGKGLEWVGRIRSKSNNYATYYADSVKDRFTISRDDSKNSLYLQMNSLKTEDTAVYYCVRDGYYVLFAYWGQGTLVTVSS
VL: DIVMTQTPLSLPVTPGEPASISCRFSQSIVNSDGNTYLEWFLQKPGQSPQLLIYKVSNRFSGVPDRFSGSGSGTDFTLKISRVEAEDVGVYYCFQGSHVPFTFGQGTKLEIK
notes: Humanized F2.169.2; VH H1 + VL L1a; expressed as human IgG1
OD450 at 0.0008 nM [2]: 0.114 OD450
OD450 at 0.004 nM [2]: 0.157 OD450
OD450 at 0.02 nM [2]: 0.477 OD450
OD450 at 0.11 nM [2]: 1.43 OD450
OD450 at 0.53 nM [2]: 2.39 OD450
OD450 at 2.67 nM [2]: 2.5 OD450
OD450 at 13.33 nM [2]: 2.6 OD450
OD450 at 66.66 nM [2]: 2.63 OD450
EC50 [3]: 3.65 nM
Max MFI [3]: 2360 MFI

B6: hAb001H1L1b (antibody, human IgG1, V domains shown)
VH: EVQLVESGGGLVQPGGSLRLSCAASGFSFNTNAMNWVRQAPGKGLEWVGRIRSKSNNYATYYADSVKDRFTISRDDSKNSLYLQMNSLKTEDTAVYYCVRDGYYVLFAYWGQGTLVTVSS
VL: DIVMTQTPLSLPVTPGEPASISCRFSQSIVNSNANTYLEWFLQKPGQSPQLLIYKVSNRFSGVPDRFSGSGSGTDFTLKISRVEAEDVGVYYCFQGSHVPFTFGQGTKLEIK
notes: Humanized F2.169.2; VH H1 + VL L1b; expressed as human IgG1
EC50 [3]: 0.399 nM
Max MFI [3]: 3160 MFI

B7: hAb001H1aL1 (antibody, human IgG1, V domains shown)
VH: EVQLVESGGGLVQPGGSLRLSCAASGFSFNTNAMNWVRQAPGKGLEWVGRIRSKSNNYATYYADSVKGRFTISRDDSKNSLYLQMNSLKTEDTAVYYCVRDGYYVLFAYWGQGTLVTVSS
VL: DIVMTQTPLSLPVTPGEPASISCRFSQSIVNSNGNTYLEWFLQKPGQSPQLLIYKVSNRFSGVPDRFSGSGSGTDFTLKISRVEAEDVGVYYCFQGSHVPFTFGQGTKLEIK
notes: Humanized F2.169.2; VH H1a + VL L1; expressed as human IgG1
OD450 at 0.0008 nM [2]: 0.184 OD450
OD450 at 0.004 nM [2]: 0.327 OD450
OD450 at 0.02 nM [2]: 0.874 OD450
OD450 at 0.11 nM [2]: 1.85 OD450
OD450 at 0.53 nM [2]: 2.33 OD450
OD450 at 2.67 nM [2]: 2.42 OD450
OD450 at 13.33 nM [2]: 2.54 OD450
OD450 at 66.66 nM [2]: 2.67 OD450
EC50 [3]: 0.269 nM
Max MFI [3]: 3270 MFI
